Key:
BaL-gp120-E47A = target: T1, BaL-gp120-E47A (HIV-1 BaL); assay: capture ELISA
T1 construct: domain: gp120

BaL-gp120-I423A = target: T2, BaL-gp120-I423A (HIV-1 BaL); assay: capture ELISA
T2 construct: domain: gp120

BaL-gp120-I420R = target: T3, BaL-gp120-I420R (HIV-1 BaL); assay: capture ELISA
T3 construct: domain: gp120; also called -1420R

BaL-gp120-Y39A = target: T4, BaL-gp120-Y39A (HIV-1 BaL); assay: capture ELISA
T4 construct: domain: gp120

core-V3-D7 = core-V3-D7 (HIV-1); assay: capture ELISA
BaL-gp120-E47AE91A = target: T5, BaL-gp120-E47AE91A (HIV-1 BaL); assay: capture ELISA
T5 construct: domain: gp120

BaL-gp120-S200A = target: T6, BaL-gp120-S200A (HIV-1 BaL); assay: capture ELISA
T6 construct: domain: gp120; also called 5200A

BaL-gp120-V68A = target: T7, BaL-gp120-V68A (HIV-1 BaL); assay: capture ELISA
T7 construct: domain: gp120

BaL-gp120-T455A = target: T8, BaL-gp120-T455A (HIV-1 BaL); assay: capture ELISA
T8 construct: domain: gp120

BaL-gp120-D78A = target: T9, BaL-gp120-D78A (HIV-1 BaL); assay: capture ELISA
T9 construct: domain: gp120

BaL-gp120-K46A = target: T10, BaL-gp120-K46A (HIV-1 BaL); assay: capture ELISA
T10 construct: domain: gp120

BaL-gp120-E492A = target: T11, BaL-gp120-E492A (HIV-1 BaL); assay: capture ELISA
T11 construct: domain: gp120

BaL-gp120-T303A = target: T12, BaL-gp120-T303A (HIV-1 BaL); assay: capture ELISA
T12 construct: domain: gp120; glycan mutant, V3 region

BaL-gp120-P76A = target: T13, BaL-gp120-P76A (HIV-1 BaL); assay: capture ELISA
T13 construct: domain: gp120

BaL-gp120-K33A = target: T14, BaL-gp120-K33A (HIV-1 BaL); assay: capture ELISA
T14 construct: domain: gp120

BaL-gp120-D57AD78A = target: T15, BaL-gp120-D57AD78A (HIV-1 BaL); assay: capture ELISA
T15 construct: domain: gp120

BaL-gp120-K500A = target: T16, BaL-gp120-K500A (HIV-1 BaL); assay: capture ELISA
T16 construct: domain: gp120

BaL-gp120-R476A = target: T17, BaL-gp120-R476A (HIV-1 BaL); assay: capture ELISA
T17 construct: domain: gp120

BaL-gp120-D62A = target: T18, BaL-gp120-D62A (HIV-1 BaL); assay: capture ELISA
T18 construct: domain: gp120

core-V1V2-D7 = core-V1V2-D7 (HIV-1); assay: capture ELISA
BaL-gp120-D57AD62A = target: T19, BaL-gp120-D57AD62A (HIV-1 BaL); assay: capture ELISA
T19 construct: domain: gp120

BaL-gp120-mV3 = BaL-gp120-mV3 (HIV-1 BaL); assay: capture ELISA
BaL-gp120-K487AK490A = target: T20, BaL-gp120-K487AK490A (HIV-1 BaL); assay: capture ELISA
T20 construct: domain: gp120

BaL-gp120-E106AD107A = target: T21, BaL-gp120-E106AD107A (HIV-1 BaL); assay: capture ELISA
T21 construct: domain: gp120

BaL-gp120-W45A = target: T22, BaL-gp120-W45A (HIV-1 BaL); assay: capture ELISA
T22 construct: domain: gp120

BaL-gp120-H105A = target: T23, BaL-gp120-H105A (HIV-1 BaL); assay: capture ELISA
T23 construct: domain: gp120

BaL-gp120-W69A = target: T24, BaL-gp120-W69A (HIV-1 BaL); assay: capture ELISA
T24 construct: domain: gp120

BaL-gp120-I491A = target: T25, BaL-gp120-I491A (HIV-1 BaL); assay: capture ELISA
T25 construct: domain: gp120

BaL-gp120-T162A = target: T26, BaL-gp120-T162A (HIV-1 BaL); assay: capture ELISA
T26 construct: domain: gp120; glycan mutant

BaL-gp120-D57A = target: T27, BaL-gp120-D57A (HIV-1 BaL); assay: capture ELISA
T27 construct: domain: gp120

BaL-gp120-F53A = target: T28, BaL-gp120-F53A (HIV-1 BaL); assay: capture ELISA
T28 construct: domain: gp120

BaL-gp120 [1] = target: T29, BaL-gp120 (HIV-1 BaL); assay: capture ELISA
T29 construct: domain: gp120; also called monomeric gp120; monomeric BaL gp120

BaL-gp120-dV1 = BaL-gp120-dV1 (HIV-1 BaL); assay: capture ELISA
BaL-gp120-dV3 = BaL-gp120-dV3 (HIV-1 BaL); assay: capture ELISA
BaL-gp120-E32A = target: T30, BaL-gp120-E32A (HIV-1 BaL); assay: capture ELISA
T30 construct: domain: gp120

BaL-gp120-Y40A = target: T31, BaL-gp120-Y40A (HIV-1 BaL); assay: capture ELISA
T31 construct: domain: gp120

BaL-gp120-R476AR480A = target: T32, BaL-gp120-R476AR480A (HIV-1 BaL); assay: capture ELISA
T32 construct: domain: gp120

BaL-gp120-V496A = target: T33, BaL-gp120-V496A (HIV-1 BaL); assay: capture ELISA
T33 construct: domain: gp120

BaL-gp120-V44A = target: T34, BaL-gp120-V44A (HIV-1 BaL); assay: capture ELISA
T34 construct: domain: gp120

BaL-gp120-W35A = target: T35, BaL-gp120-W35A (HIV-1 BaL); assay: capture ELISA
T35 construct: domain: gp120

BaL-gp120-G495A = target: T36, BaL-gp120-G495A (HIV-1 BaL); assay: capture ELISA
T36 construct: domain: gp120

BaL-gp120-S158A = target: T37, BaL-gp120-S158A (HIV-1 BaL); assay: capture ELISA
T37 construct: domain: gp120

BaL-gp120-dV2 = BaL-gp120-dV2 (HIV-1 BaL); assay: capture ELISA
BaL-gp120-T499A = target: T38, BaL-gp120-T499A (HIV-1 BaL); assay: capture ELISA
T38 construct: domain: gp120

BaL-gp120-R58AK59A = target: T39, BaL-gp120-R58AK59A (HIV-1 BaL); assay: capture ELISA
T39 construct: domain: gp120

BaL-gp120-E31A = target: T40, BaL-gp120-E31A (HIV-1 BaL); assay: capture ELISA
T40 construct: domain: gp120

core-D7 = core-D7 (HIV-1); assay: capture ELISA
BaL-gp120-Y61A = target: T41, BaL-gp120-Y61A (HIV-1 BaL); assay: capture ELISA
T41 construct: domain: gp120

BaL-gp120-V75A = target: T42, BaL-gp120-V75A (HIV-1 BaL); assay: capture ELISA
T42 construct: domain: gp120

BaL-gp120-L494A = target: T43, BaL-gp120-L494A (HIV-1 BaL); assay: capture ELISA
T43 construct: domain: gp120

BaL-gp120-P498A = target: T44, BaL-gp120-P498A (HIV-1 BaL); assay: capture ELISA
T44 construct: domain: gp120

BaL-gp120-P493A = target: T45, BaL-gp120-P493A (HIV-1 BaL); assay: capture ELISA
T45 construct: domain: gp120

gp120-JR4-ScFV [2] = assay: ELISA
gp120-JR4-ScFV [3] = assay: ELISA; remark: listed apart in the source
BaL-gp120 [4] = target: T29, BaL-gp120; assay: ELISA
FLSC R/T = target: T46, FLSC R/T (HIV-1, UniProt P01730 26-208); assay: ELISA
T46 construct: not shown: linker of FLSC not described

gp120-b12-ScFV = assay: ELISA
gp120-JR48.1-ScFV = assay: ELISA

B1: b12 (antibody, V domains shown)
VH: QVQLVQSGAEVKKPGASVKVSCQASGYRFSNFVIHWVRQAPGQRFEWMGWINPYNGNKEFSAKFQDRVTFTADTSANTAYMELRSLRSADTAVYYCARVGPYSWDDSPQDNYYMDVWGKGTTVIVSS
VL: EIVLTQSPGTLSLSPGERATFSCRSSHSIRSRRVAWYQHKPGQAPRLVIHGVSNRASGISDRFSGSGSGTDFTLTITRVEPEDFALYYCQVYGASSYTFGQGTKLERK
% Binding (BaL-gp120-E47A): 100% | % Binding (BaL-gp120-I423A): 96% | % Binding (BaL-gp120-I420R): 101% | % Binding (BaL-gp120-Y39A): 90% | % Binding (core-V3-D7): 102% | % Binding (BaL-gp120-E47AE91A): 86% | % Binding (BaL-gp120-S200A): 86% | % Binding (BaL-gp120-V68A): 83% | % Binding (BaL-gp120-T455A): 90% | % Binding (BaL-gp120-D78A): 92% | % Binding (BaL-gp120-K46A): 93% | % Binding (BaL-gp120-E492A): 105% | % Binding (BaL-gp120-T303A): 92% | % Binding (BaL-gp120-P76A): 96% | % Binding (BaL-gp120-K33A): 89% | % Binding (BaL-gp120-D57AD78A): 96% | % Binding (BaL-gp120-K500A): 93% | % Binding (BaL-gp120-R476A): 101% | % Binding (BaL-gp120-D62A): 98% | % Binding (core-V1V2-D7): 103% | % Binding (BaL-gp120-D57AD62A): 103% | % Binding (BaL-gp120-mV3): 100% | % Binding (BaL-gp120-K487AK490A): 85% | % Binding (BaL-gp120-E106AD107A): 80% | % Binding (BaL-gp120-W45A): 96% | % Binding (BaL-gp120-H105A): 100% | % Binding (BaL-gp120-W69A): 97% | % Binding (BaL-gp120-I491A): 98% | % Binding (BaL-gp120-T162A): 110% | % Binding (BaL-gp120-D57A): 95% | % Binding (BaL-gp120-F53A): 91% | % Binding (BaL-gp120 [1]): 100% | % Binding (BaL-gp120-dV1): 90% | % Binding (BaL-gp120-dV3): 109% | % Binding (BaL-gp120-E32A): 104% | % Binding (BaL-gp120-Y40A): 106% | % Binding (BaL-gp120-R476AR480A): 68% | % Binding (BaL-gp120-V496A): 100% | % Binding (BaL-gp120-V44A): 94% | % Binding (BaL-gp120-W35A): 107% | % Binding (BaL-gp120-G495A): 90% | % Binding (BaL-gp120-S158A): 80% | % Binding (BaL-gp120-dV2): 87% | % Binding (BaL-gp120-T499A): 107% | % Binding (BaL-gp120-R58AK59A): 101% | % Binding (BaL-gp120-E31A): 86% | % Binding (core-D7): 106% | % Binding (BaL-gp120-Y61A): 85% | % Binding (BaL-gp120-V75A): 93% | % Binding (BaL-gp120-L494A): 95% | % Binding (BaL-gp120-P498A): 97% | % Binding (BaL-gp120-P493A): 95%

B2: JR4 (antibody, V domains shown)
VH: EVQLVESGPGLVKPLETLSLTCAVPGGSIRRNYWSWIRQPPGKGLEWIGHSYGSGGSTNYNPSLESRVTLSVDTSKNLFSLKLTSVTAADTAVYYCARTVWYYTSGTHYFDHWGQGVLVTVSS
VL: QSVLTQPPSVSAAPGQKVTISCSGSSSNIGRSYVSWYQQVPGAAPKLLIYDTNKRPSGVSDRFSGSKSGSSASLAITGLQTGDEADYYCGAWDGSLNVHIFGSGTKLTVL
binding result (gp120-JR4-ScFV [2]): no binding (tested: >100 fold of the Ab needed on gp120) | Fold of Ab needed for ELISA binding OD equal to half max on gp120 (gp120-JR4-ScFV [3]): > 100 fold | Fold of Ab needed for ELISA binding OD equal to half max on gp120 (BaL-gp120 [4]): 1 fold | Fold of Ab needed for ELISA binding OD equal to half max on gp120 (FLSC R/T): 0.11 fold | Fold of Ab needed for ELISA binding OD equal to half max on gp120 (gp120-b12-ScFV): 0.09 fold | Fold of Ab needed for ELISA binding OD equal to half max on gp120 (gp120-JR48.1-ScFV): 0.21 fold

Source: patent US20150299268A1 (UNIVERSITY OF MARYLAND BALTIMORE, published 2015)
